Measurements: patent publication US10336829B2, “Intracellular delivery compounds” (Sorrento Therapeutics, Inc., priority 2015, dated 2019)

Tests used:
[1] = test system: MCF-10A cells; assay: Caveolin and clathrin-dependent compound 901a uptake in MCF-10A cells; type: cell-based, human; conditions: 30 min pretreatment
Text: Clathrin-mediated endocytosis is mediated by small vesicles that have a morphologically characteristic coat made up of a complex of proteins that are mainly associated with the cytosolic protein clathrin. Caveolae are the most common reported non-clathrin-coated plasma membrane buds, which exist on the surface of many, but not all cell types. They consist of the cholesterol-binding protein caveolin (Vip21) with a bilayer enriched in cholesterol and glycolipids. Both clathrin mediated endocytosis and caveolae transport extracellular molecules into the cell. 5,000 cells were seeded per well in a 96 well plate, overnight. Cells were pretreated with the clathrin inhibitor Pitstop2 (30 uM or 60 uM) or the caveolin inhibitor filipin (0.5 ug/ml or 1.0 ug/ml) for 30 minutes. […] Cells were fixed and imaged with IncuCyte. DMSO and antibody only were used as controls.

[2] = test system: cellular antigens in U251 cells; assay: Cell binding of naked ST3G12 versus compound 901a in permeabilized U251 cells (HTFC); conditions: 45 min room temperature, PE anti-human IgG
Protocol: After 45 minutes at room temperature, cells were washed twice and incubated with phycoerythrin (PE) conjugated-anti-human IgG for 20 minutes at room temperature in the dark. Cells were then washed and analyzed by high throughput flow cytometry (HTFC). The results are shown in FIG. 9 for assessment of antibody binding to cellular antigens in U251 cells.

[3] = molecular target: T1, STAT3 (Homo sapiens, UniProt P40763); assay: Biacore T200 affinity to recombinant human STAT3-GST; conditions: Biacore T200, 1:1 (Langmuir) binding model
T1 sequence (P40763 whole entry): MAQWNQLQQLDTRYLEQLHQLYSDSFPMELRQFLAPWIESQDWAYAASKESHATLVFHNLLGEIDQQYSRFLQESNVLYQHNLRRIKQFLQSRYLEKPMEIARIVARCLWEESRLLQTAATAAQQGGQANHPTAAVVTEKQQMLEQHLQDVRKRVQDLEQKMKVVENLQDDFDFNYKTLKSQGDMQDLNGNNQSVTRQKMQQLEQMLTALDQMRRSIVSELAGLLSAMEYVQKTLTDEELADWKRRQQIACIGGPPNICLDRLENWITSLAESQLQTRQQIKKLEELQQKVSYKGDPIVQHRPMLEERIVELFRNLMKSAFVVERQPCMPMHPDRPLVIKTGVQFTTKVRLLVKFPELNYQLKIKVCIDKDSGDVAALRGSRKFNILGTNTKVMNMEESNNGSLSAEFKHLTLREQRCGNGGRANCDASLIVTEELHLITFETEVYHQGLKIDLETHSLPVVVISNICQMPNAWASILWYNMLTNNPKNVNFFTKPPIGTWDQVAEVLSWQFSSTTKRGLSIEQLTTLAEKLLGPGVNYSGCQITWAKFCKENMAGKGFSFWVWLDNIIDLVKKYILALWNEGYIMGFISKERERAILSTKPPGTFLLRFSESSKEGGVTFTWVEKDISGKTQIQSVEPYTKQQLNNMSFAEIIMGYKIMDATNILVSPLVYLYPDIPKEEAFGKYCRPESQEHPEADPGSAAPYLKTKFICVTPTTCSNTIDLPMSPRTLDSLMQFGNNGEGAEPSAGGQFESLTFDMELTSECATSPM
Protocol: (§1) Anti-human Fc antibody (GE, BR-1008-39) was immobilized on a CMS sensor chip to approximately 1000 RU using standard NHS/EDC coupling methodology. Antibodies (approximately 10 ug/ml) were captured for 60 seconds at a flow rate of 10 ul/min Recombinant human STAT3-GST was serially diluted 2-fold into running buffer (HBS-EP+, starting from […]). All measurements were conducted at a flow rate of 30 ul/min Surfaces were regenerated with 3M MgCl2 (from human antibody kit) for 60 seconds. A 1:1 (Langmuir) binding model was used to fit the data.

[4] = test system: GST protein; assay: Biacore binding to GST protein; conditions: Biacore assay
Protocol: as §1

[5] = molecular target: T1, STAT3; assay: IL-6-stimulated STAT3 phosphorylation ELISA in MCF-10A and MCF-7 cells; type: cell-based; set-up: endogenous in cells; conditions: overnight pre-treatment, IL-6 10 or 40 ng/ml 20 min
Protocol: Cells were pre-treated overnight with antibody, and then stimulated with various concentrations of IL-6 for 20 minutes (10 ng/ml or 40 ng/ml). IL-6 is a STAT3 activator. Cells were then lysed and the protein lysates were subjected to ELISA to determine the phosphorylation status. […] “OS-AIP” refers to an oligosaccharide conjugated bacterial AIP protein, used as a control.

[6] = test system: U251 cells; assay: Cell penetration in U251 cells by microscopy; type: cell-based; conditions: 20 ug/mL, 2 hours at 37° C.
Protocol: Briefly, previously cleaned glass coverslips were coated with collagen for 2 hours at 37° C. 100,000 U251 cells were seeded on the coverslips. Media was removed, and cells were rinsed once with fluorobrite. Next, 20 ug/mL of the specified antibody was added for 2 hours at 37° C. Cells were fixed in 4% PFA for 15 minutes and then permeabilized with 0.1% TritonX for 15 minutes. Cells were blocked with 3% BSA for 30 minutes and 1:250 GAH-Alexa fluor 488 was added for 1 hour. Next, 200× wheat germ agglutinin Alexa fluor 555 (WGA 555) and 1:1000 DAPI was added for 30 minutes. Cells were washed 3× with PBS and mounted with prolong gold anti-fade.

[7] = molecular target: T1, STAT3; assay: Cell binding assay of anti-STAT3 antibodies, fixed and permeabilized cells, flow cytometry; set-up: endogenous in cells; conditions: MDA-MB-468 and U251 cells, serial dilutions, PE anti-human IgG
Protocol: Next, the binding of the candidate anti-STAT3 antibodies to cellular targets was tested in cell binding assays using MDA-MB-435 breast cancer cells and U251 cells. The cells were seeded overnight in a 96 well plate, then fixed with PFA and permeabilized with methanol. Cells were incubated with serial dilutions of the anti-STAT3 antibody candidates ST1A5, ST3G12 and ST5G12 for one hour and 30 minutes. Following incubation, the cells were washed and incubated for 30 minutes with phycoerythrin (PE) conjugated anti-human IgG. Fluorescence was measured on an Intellicyte high-throughput flow cytometry analyzer. […] Bevacizumab (Avastin), a monoclonal antibody that inhibits vascular endothelial growth factor A (VEGF-A) was used as a negative control.

`O=C1NC(=NS(=O)(=O)c2cccc3ccccc23)S/C1=C\c1ccc(Br)cc1` [PS2, Pitstop2] was tested. Which “effect of inhibitor on compound 901a uptake” value ([1]; inhibitor 30 uM and 60 uM) did it give?
Its value is “inhibited compound 901a uptake”.

Which results are given for `CCCCC[C@@H](O)[C@H]1C(=O)O[C@H](C)[C@@H](O)/C=C/C=C/C=C/C=C/C=C(\C)[C@@H](O)C[C@H](O)C[C@H](O)C[C@H](O)C[C@H](O)C[C@H](O)C[C@@H]1O` [filipin]?
effect of inhibitor on compound 901a uptake ([1]; inhibitor 0.5 ug/ml): little effect; effect of inhibitor on compound 901a uptake ([1]; inhibitor 1.0 ug/ml): greater effect

B1: ST3G12: Human anti-human STAT3 antibody; heavy chain variable SEQ ID NO: 3, light chain variable SEQ ID NO: 4 (antibody, V domains shown)
VH: QVQLVQSGAEVKKPGASVKVSCKASGYTFTSYYMHWVRQAPGQGLEWMGIINPSGGSTSYAQKFQGRVTMTRDTSTSTVYMELSSLRSEDTAVYYCARSDYVHSFDIWGQGTMVTVSS
VL: QPVLTQPPSASALLGASIKLTCTLSSEHSTYTVEWYQQRPGRSPQYIMNVKSDGSYNKGDGIPDRFMGSSSGADRYLTFSNLQSDDEAEYHCGESHRIDGQVGVVFGGGTKLTVL
Which “binding to cellular antigens in U251 cells” value [2] does the source give for B1 here?
Its value is “considerably lower”.

What about the Rmax [3] of the same molecule?
Its Rmax is 174 RU.

And the kd [3]?
The kd was 0.000322 s⁻¹.

What about the ka ([3]; STAT3-GST from 100 nm) of the same molecule?
Its ka is 59700 M⁻¹ s⁻¹.

What about the “binding to GST protein” value [4] of the same molecule?
The value was “No binding”.

What about the “effect on STAT3 phosphorylation” value [5] of the same molecule?
The value was “little to no effect”.

What about the “cell penetration / internalization” value [6] of the same molecule?
Its value is “no internalization”.

And the “binding to STAT3 / cellular antigens (MFI)” value [7]?
The value was “bound STAT3”.
